± gives the standard deviation of the averaged measurements.
Each sequence was assayed on Saccharomyces cerevisiae (assay: protein stability index of tFT-peptide fusion (C-terminal peptide) (PSI (0-1 scale)); higher = more stable (slower turnover)). Details: genetic background: wild type; temperature: 30 C.
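Note: PSI is a weighted mean of sequencing reads over stability bins, variants kept only with over 10 reads, mCherry proximal and sfGFP distal, peptide attached via GGGS linker.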

Row | Sequence | protein stability index
1 | VTVGGAWSGTRG | 0.647 ± 0.06
2 | VTWNTLENMNLV | 0.673 ± 0.032
3 | VTYFIPVTNRAS | 0.605 ± 0.0074
4 | VVAERFADAKGS | 0.653 ± 0.025
5 | VVAVGHWFDGGV | 0.623 ± 0.045
6 | VVCFLVHGWGGW | 0.638 ± 0.048
7 | VVCLGGGVLPRV | 0.654 ± 0.081
8 | VVCRDGLSSCVG | 0.623 ± 0.019
9 | VVCSSGFVSDPG | 0.5582 ± 0.0049
10 | VVDGGEHVCYRI | 0.654 ± 0.082
11 | VVFSPQFRLPVP | 0.66 ± 0.024
12 | VVGFVRPGMQGL | 0.673 ± 0.052
13 | VVGGVGLGLWKV | 0.659 ± 0.097
14 | VVGRTNRYAVPH | 0.662 ± 0.061
15 | VVILGSMHLCSV | 0.561 ± 0.016
16 | VVLFPILKLLSN | 0.53 ± 0.015
17 | VVLWLASGVGGG | 0.75 ± 0.061
18 | VVMLSLVALGRV | 0.523 ± 0.026
19 | VVQEIGGSVRRE | 0.6814 ± 0.0035
20 | VVRALSTQVCLP | 0.645 ± 0.098
21 | VVRFEGYVLGWG | 0.647 ± 0.072
22 | VVRKVALVALPL | 0.574 ± 0.05
23 | VVRLKRLPPCSS | 0.699 ± 0.077
24 | VVRSDFCFFFGI | 0.754 ± 0.065
25 | VVRWFGGGCVRG | 0.682 ± 0.033
26 | VVSGDAPVARRA | 0.6781 ± 0.0056

Row | Sequence | protein stability index
27 | VVSGSHSVLYGS | 0.71 ± 0.028
28 | VVSKMGFGAALV | 0.654 ± 0.085
29 | VVSRLCCTRIRQ | 0.701 ± 0.04
30 | VVSSAYRLKARP | 0.696 ± 0.046
31 | VVSSFHYTSRQC | 0.744 ± 0.1
32 | VVTRANVRRDKM | 0.672 ± 0.023
33 | VVVCGSSVLVLT | 0.555 ± 0.041
34 | VVVLVGGGWVCV | 0.51 ± 0.035
35 | VVVSGGGQGFWL | 0.757 ± 0.064
36 | VVWGLGAGRMVW | 0.656 ± 0.076
37 | VVWRCCGRGAEG | 0.6457 ± 0.0016
38 | VVYFARGDNVYA | 0.682 ± 0.05
39 | VWCGVLVRSCWV | 0.52 ± 0.0091
40 | VWCVGRVGYEGE | 0.783 ± 0.1
41 | VWFDPHEFIVIA | 0.59 ± 0.027
42 | VWFGLLTTVNID | 0.5657 ± 0.0048
43 | VWGGLAVVTGWA | 0.612 ± 0.073
44 | VWGGLGGGVGRA | 0.668 ± 0.014
45 | VWGVCAVFGCAG | 0.644 ± 0.12
46 | VWKEPVQYSRQL | 0.626 ± 0.051
47 | VWLAGVMVGRFQ | 0.5575 ± 0.0039
48 | VWLWCDLSRGWI | 0.733 ± 0.013
49 | VWNLELFFTLAT | 0.6331 ± 0.001
50 | VWVVSGRGGWWG | 0.6336 ± 0.0033
51 | VWVWATGWGARG | 0.7369 ± 0.0038
52 | VYCIEFNRQWDA | 0.693 ± 0.048

Row | Sequence | protein stability index
53 | VYEGLRSGPRSL | 0.718 ± 0.093
54 | VYEIQCGSNFKG | 0.7 ± 0.052
55 | VYHFPDLFPLGI | 0.7078 ± 0.0027
56 | VYKLDLEEENRS | 0.654 ± 0.072
57 | WAAWYPGEHPVP | 0.755 ± 0.12
58 | WAIPSSPQYKRA | 0.676 ± 0.031
59 | WARVESFTSKTQ | 0.6028 ± 0.0045
60 | WCLGLGCVWGGW | 0.779 ± 0.092
61 | WCRGVGSWRGRG | 0.688 ± 0.008
62 | WCVEGVWRVRGW | 0.649 ± 0.044
63 | WDFLLQGISSPR | 0.767 ± 0.12
64 | WDGWPTRWGGTG | 0.705 ± 0.017
65 | WEGAGGGFGLVV | 0.712 ± 0.05
66 | WELPNRANDLSH | 0.769 ± 0.11
67 | WENKKRMIRQKL | 0.526 ± 0.016
68 | WERGKGGLVMEG | 0.646 ± 0.0067
69 | WEWLQAKCFLSQ | 0.688 ± 0.086
70 | WFDVVALPCLSF | 0.562 ± 0.0084
71 | WFFSNLRRDCGG | 0.735 ± 0.016
72 | WFHPAPLCGPQS | 0.662 ± 0.063
73 | WFLCWGWGCGGA | 0.673 ± 0.08
74 | WFRPLSMLPPGF | 0.701 ± 0.02
75 | WGCFPGVVMGVS | 0.594 ± 0.02
76 | WGDDRIRVCVRG | 0.611 ± 0.035
77 | WGFWLCSGNWST | 0.725 ± 0.0088
78 | WGGGGGGGAAGS | 0.679 ± 0.08

Row | Sequence | protein stability index
79 | WGGGRGLRVVGG | 0.733 ± 0.092
80 | WGGWGRVWVKLG | 0.701 ± 0.05
81 | WGIVGLRGSRVG | 0.618 ± 0.018
82 | WGMVFQVFRRRN | 0.582 ± 0.018
83 | WGPGGRRGVGHV | 0.727 ± 0.058
84 | WGQCLYRSAGSV | 0.715 ± 0.055
85 | WGRCGAVGRGGA | 0.693 ± 0.029
86 | WGRGAVGPLLGV | 0.632 ± 0.016
87 | WGRLRFFDCSGF | 0.605 ± 0.014
88 | WGRRGRRGSWGA | 0.683 ± 0.024
89 | WGRRNFLPNSPR | 0.67 ± 0.049
90 | WGSLVRLFGLWR | 0.6541 ± 0.0015
91 | WGVWYGGAVRVG | 0.5 ± 0.052
92 | WIPSYMRFCALT | 0.788 ± 0.098
93 | WIRRWVGVEGPL | 0.707 ± 0.079
94 | WKNGYITGHRYM | 0.66596 ± 0.00041
95 | WLGSRGNGGWAE | 0.696 ± 0.024
96 | WLPSSLPPIVHH | 0.662 ± 0.018
97 | WMCILESWDSVD | 0.706 ± 0.099
98 | WPFMGLSAGCLR | 0.691 ± 0.028
99 | WPLKTMLFGIWV | 0.562 ± 0.028
100 | WPSMFFSIEESW | 0.887 ± 0.042
101 | WPTPRVGIDLEN | 0.631 ± 0.05
